Reference: paper PMC3996851, “Characterization of 3-phosphoglycerate kinase from Corynebacterium glutamicum and its impact on amino acid production” (BMC Microbiology, 2014)

How the values were obtained:
[1] = biological target: T1, PGK^His (C. glutamicum 3-phosphoglycerate kinase) (Corynebacterium glutamicum, UniProt Q01655); assay: coupled GAPDH/NADH assay, absorbance […] nm; type: biochemical
T1 construct: full length, N-terminal tenfold His tag (pET16b); expressed in E. coli BL21(DE3), Ni-NTA purified; 47 kDa monomer, 104 kDa homodimer

[2] = substrate: Nc1ncnc2c1ncn2[C@@H]1O[C@H](COP(=O)(O)OP(=O)(O)OP(=O)(O)O)[C@@H](O)[C@H]1O; assay: purified protein; type: biochemical, Corynebacterium glutamicum; settings: gluconeogenic direction, co-substrate 3-PG, 2 mM Mg2+, 100 mM TEA-Cl pH 7.4, 30°C
[3] = substrate: O=C(O)[C@H](O)COP(=O)(O)O; assay: purified protein; type: biochemical, Corynebacterium glutamicum; settings: gluconeogenic direction, co-substrate ATP, 2 mM Mg2+, 100 mM TEA-Cl pH 7.4, 30°C
[4] = biological target: the molecule itself; assay: SEC; gel filtration on a Bio-Prep SE-1000/17 column calibrated with BioRad standards; 100 mM TEA-Cl pH 7.4 with the optimal conditions for activity; two runs, 2 mg/ml PGK mixed with standards and 4 mg/ml PGK; single peak of about 104 kDa, fractions checked by enzyme activity (data not shown)

Ki [1] [µM] | Molecule | Km [2] [mM] | Vmax [2] [U/mg] | kcat [2] [s⁻¹] | kcat/Km [2] [s⁻¹ mM⁻¹] | Km [3] [mM] | Vmax [3] [U/mg] | kcat [3] [s⁻¹] | kcat/Km [3] [s⁻¹ mM⁻¹] | stoichiometry N [4]
100 | Nc1ncnc2c1ncn2[C@@H]1O[C@H](COP(=O)(O)OP(=O)(O)O)[C@@H](O)[C@H]1O [ADP] |  |  |  |  |  |  |  |  | 
 | 3-phosphoglycerate kinase (PGK) from Corynebacterium glutamicum, N-terminally His-tagged (enzyme, Corynebacterium glutamicum ATCC 13032, UniProt Q01655 1-405, looked up, 3-phosphoglycerate kinase (EC 2.7.2.3) of Corynebacterium glutamicum ATCC 13032, encoded by cg1790/pgk; amplified from genomic DNA with primers from start to stop; monomer 47 kDa by SDS-PAGE; The methods say an N-terminal tenfold His tag (pET16b); also called PGK^His; PGKHis; source: E. coli BL21 (DE3) (pET16b-pgk), purified (Ni-NTA, desalted on Sephadex G25); not shown: His10, N-terminal, kept) MAVKTLKDLLDEGVDGRHVIVRSDFNVPLNDDREITDKGRIIASLPTLKALSEGGAKVIVMAHLGRPKGEVNEKYSLAPVAEALSDELGQYVALAADVVGEDAHERANGLTEGDILLLENVRFDPRETSKDEAERTAFAQELAALAADNGAFVSDGFGVVHRAQTSVYDIAKLLPHYAGGLVETEISVLEKIAESPEAPYVVVLGGSKVSDKIGVIEALAAKADKIIVGGGMCYTFLAAQGHNVQQSLLQEEMKATCTDLLARFGDKIVLPVDLVAASEFNKDAEKQIVDLDSIPEGWMSLDIGPESVKNFGEVLSTAKTIFWNGPMGVFEFAAFSEGTRGIAQAIIDATAGNDAFSVVGGGDSAASVRVLGLNEDGFSHISTGGGASLEYLEGKELPGVAILAQ | 0.11 | 150 | 130 | 592 | 0.26 | 220 | 191 | 733 | 2
